Test results taken from US20260049146A1 (PARAGON THERAPEUTICS, published 2026).

Target: T1, Recombinant in-house Human FcRn protein (human, UniProt P55899 24-297; P61769 21-119)
T1 construct: also called HuFcRn; huFcRn
Assay: competition ELISA, huFcRn coated, pH 6.0, competitor biotinylated human IgG1; reference PAL02-0002
Procedure: A competitive binding ELISA assay was used to screen for molecules that prevent IgG from binding to recombinant in-house human FcRn protein at pH 6.0. Candidate therapeutics prevent FcRn from binding IgG Abs in the acidic pH 6.0 endosomal environment. […] IC50 values were calculated using GraphPad Prism 7 software applying a nonlinear regression (curve fit) of a log (antagonist) vs. response—variable slop (four parameters).

T1 sequence (P55899 24-297 limits assumed, chain 1 of 2): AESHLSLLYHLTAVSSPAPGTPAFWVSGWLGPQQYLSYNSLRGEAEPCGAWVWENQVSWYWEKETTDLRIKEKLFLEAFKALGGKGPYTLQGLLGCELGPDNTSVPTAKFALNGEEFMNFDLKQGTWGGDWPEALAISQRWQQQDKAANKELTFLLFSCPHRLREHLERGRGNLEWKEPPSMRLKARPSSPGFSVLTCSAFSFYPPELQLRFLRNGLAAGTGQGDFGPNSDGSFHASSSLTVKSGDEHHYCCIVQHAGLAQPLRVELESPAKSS
T1 sequence (P61769 21-119 limits assumed, chain 2 of 2): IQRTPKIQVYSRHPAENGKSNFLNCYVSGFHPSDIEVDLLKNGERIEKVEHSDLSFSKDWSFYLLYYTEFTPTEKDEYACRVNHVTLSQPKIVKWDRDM

Binder | IC50 as a ratio to Efgartigimod | fold lower IC50 than Efgartigimod
Construct 1 PAL02-0195 (IgG1 Fc_M252Y/S254T/T256E/M428L/H433K/N434F) (other, Fc fragment variant) DKTHTCPPCPAPELLGGPSVFLFPPKPKDTLYITREPEVTCVVVDVSHEDPEVKFNWYVDGVEVHNAKTKPREEQYNSTYRVVSVLTVLHQDWLNGKEYKCKVSNKALPAPIEKTISKAKGQPREPQVYTLPPSRDELTKNQVSLTCLVKGFYPSDIAVEWESNGQPENNYKTTPPVLDSDGSFFLYSKLTVDKSRWQQGNVFSCSVLHEALKFHYTQKSLSLSPG | ~0.5 ratio | –
Construct 4 PAL02-0198 (IgG1 Fc_M252Y/S254T/T256E/M428L/N434F) (other, Fc fragment variant) DKTHTCPPCPAPELLGGPSVFLFPPKPKDTLYITREPEVTCVVVDVSHEDPEVKFNWYVDGVEVHNAKTKPREEQYNSTYRVVSVLTVLHQDWLNGKEYKCKVSNKALPAPIEKTISKAKGQPREPQVYTLPPSRDELTKNQVSLTCLVKGFYPSDIAVEWESNGQPENNYKTTPPVLDSDGSFFLYSKLTVDKSRWQQGNVFSCSVLHEALHFHYTQKSLSLSPG | ~0.5 ratio | –
Construct 5 PAL02-0200 (IgG1 Fc_M252Y/S254T/T256E/H433R/N434Y) (other, Fc fragment variant) DKTHTCPPCPAPELLGGPSVFLFPPKPKDTLYITREPEVTCVVVDVSHEDPEVKFNWYVDGVEVHNAKTKPREEQYNSTYRVVSVLTVLHQDWLNGKEYKCKVSNKALPAPIEKTISKAKGQPREPQVYTLPPSRDELTKNQVSLTCLVKGFYPSDIAVEWESNGQPENNYKTTPPVLDSDGSFFLYSKLTVDKSRWQQGNVFSCSVMHEALRYHYTQKSLSLSPG | ~0.5 ratio | –
Construct 3 PAL02-0197 (IgG1 Fc_M252Y/S254T/T256E/H433K/N434Y) (other, Fc fragment variant) DKTHTCPPCPAPELLGGPSVFLFPPKPKDTLYITREPEVTCVVVDVSHEDPEVKFNWYVDGVEVHNAKTKPREEQYNSTYRVVSVLTVLHQDWLNGKEYKCKVSNKALPAPIEKTISKAKGQPREPQVYTLPPSRDELTKNQVSLTCLVKGFYPSDIAVEWESNGQPENNYKTTPPVLDSDGSFFLYSKLTVDKSRWQQGNVFSCSVMHEALKYHYTQKSLSLSPG | ~0.5 ratio | 3.5 fold
Construct 6 PAL02-0202 (IgG1 Fc_M252Y/S254T/T256E/H433R/N434F) (other, Fc fragment variant) DKTHTCPPCPAPELLGGPSVFLFPPKPKDTLYITREPEVTCVVVDVSHEDPEVKFNWYVDGVEVHNAKTKPREEQYNSTYRVVSVLTVLHQDWLNGKEYKCKVSNKALPAPIEKTISKAKGQPREPQVYTLPPSRDELTKNQVSLTCLVKGFYPSDIAVEWESNGQPENNYKTTPPVLDSDGSFFLYSKLTVDKSRWQQGNVFSCSVMHEALRFHYTQKSLSLSPG | ~0.5 ratio | –
